Reference: paper PMC11604724 (MedComm, 2024)

Key:
[1] = target: PNGase F‐treated NTD protein (SARS-CoV-2 WT, UniProt P0DTC2, N-linked glycans removed with PNGase F (nearly complete deglycosylation)); assay: ELISA; conditions: both partners purified
[2] = target: Horseradish peroxidase (HRP)‐labeled NTD protein (SARS-CoV-2, WT assumed, UniProt P0DTC2, horseradish peroxidase (HRP) label); assay: ELISA; conditions: both partners purified
[3] = target: SARS‐CoV‐2 N‐terminal domain (NTD) protein (SARS-CoV-2 WT, UniProt P0DTC2, N-linked glycans (complex glycosylation, migrates at 40-70 kDa)); assay: ELISA; conditions: both partners purified
[4] = target: SARS‐CoV‐2 (WT) spike expressed on HEK293T cells (SARS-CoV-2, UniProt P0DTC2); assay: flow cytometry on cells; conditions: one partner purified

Measured: binding result

B1: mAb 3711 (antibody, V domains shown)
VH: EVQLVESGGGLVKPGRSLRLSCAASGFTFSDYYMSWIRQAPGKGLEWVSYISSSGSTIYYADSVRGRFTISRDNAKNSLYLQMNTLRAEDTAVYYCARGGWELRSLAGGYYGMDVWGQGTTVTVSS
VL: DIVMTQTPFTLSASVGDRVTITCRASQGIRNDLGWYQQKPGKAPKCLIYAASSLLSGVPSRFSGSGSGTEFTLTISSLQPEDFATYYCLQHNSYPWTFGQGTKLEIK
binds: all assays above
